Read-outs that look alike come from different tables or passages of the source.
Experiments:
gene editing with Cas9 = assay: Screen of 322 new SSAP proteins, gene editing activity with Cas9 (Table 5); type: cell-based; parameters: Cas9 with SSAP activity: scale not given here
How it was run: (§1)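 Read-out is gene editing activity. Candidates come from sequence data mining, are made synthetically, and are tested alongside either nuclease-active Cas9 or catalytically dead dCas9.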

[1] = system: endogenous genome targets (ACTB, HSP90AA1); assay: Arrayed SSAP library screening, mKate knock-in assay (editing efficiency); type: cell-based; conditions: average of HSP90 and ACTB, 3 days after transfection; for Editing Efficiency (Normalized, Average, two targets): fold over negative control (Flag_HA); for Editing Efficiency (Absolute, Average, two targets): percent of mKate knock-in
How it was run: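 Mammalian cells in duplicate were transfected with SSAP-encoding plasmids, with about 50% transfection efficiency. mKate knock-in positive cells and viability, by flow-cytometric live counts, were quantified three days later. RecT SSAP served as positive control and Flag-HA plasmid as negative control.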

gene editing with dCas9 = assay: Screen of 322 new SSAP proteins, gene editing activity with dCas9 (Table 5); type: cell-based; parameters: dCas9 with SSAP activity: scale not given here
How it was run: as §1

[2] = system: gene editing with Cas9 and dCas9; assay: Screen of 322 new SSAP proteins, activity across all experiments (Cas9 and dCas9, Table 5); type: cell-based; parameters: scale not given here
How it was run: as §1

mammalian cells = assay: Arrayed SSAP library screening, cell viability by live cell counts via flow cytometry; type: cell-based
How it was run: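 Each SSAP plasmid transfected in duplicate (~50% efficiency), with RecT SSAP as positive and Flag-HA as negative control. After three days, mKate-positive cells and viability by flow-cytometric live cell counts were quantified to gauge SSAP fitness effects.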

HSP90AA1 locus = assay: mKate knock-in gene-editing assay, RecE/RecT homologs, HSP90AA1 locus; type: cell-based, human; conditions: HEK293 cells, MCP fusion, n=3
Description: (§2) Transfection HEK293T cells were seeded into 96-well plates (Corning) 12-24 hours prior to transfection at a density of 30,000 cells/well, and 250 ng of total DNA was transfected per well. HeLa and HepG2 cells were seeded into 48-well plates (Corning) one day prior to transfection at a density of 50,000 and 30,000 cells/well respectively, and 400 ng of total DNA was transfected per well. Transfections were performed with Lipofectamine 3000 (Life Technologies) following the manufacturer's instructions.
(§3) Fluorescence-activated cell sorting (FACS) mKate knock-in efficiency was analyzed on a CytoFLEX flow cytometer (Beckman Coulter; Stanford Stem Cell FACS Core). 72 hours after transfection, cells were washed once with PBS and dissociated with TrypLE Express Enzyme (Thermo Fisher Scientific). Cell suspension was then transferred to a 96-well U-bottom plate (Thermo Fisher Scientific) and centrifuged at 300×G for 5 minutes. After removing the supernatant, pelleted cells were resuspended with 50 μl 4% FBS in PBS, and cells were sorted within 30 minutes of preparation.
(§4) 15 different species of microbes having RecE/RecT proteins were selected for a screen of various RecE and RecT proteins across the microbial kingdom (Table 3). Each protein was codon-optimized and synthesized. As previously described for E. coli RecE/RecT based REDIT systems, each protein was fused via E-XTEN linker to the MCP protein with additional nuclear localization signal. mKate knock-in gene-editing assay was used to measure efficiencies at DYNLT1 locus (FIG. 26A, Table 4) and HSP90AA1 locus (FIG. 26B, Table 4).

DYNLT1 locus = assay: mKate knock-in gene-editing assay, RecE/RecT homologs, DYNLT1 locus; type: cell-based, human; conditions: HEK293 cells, MCP fusion, n=3
Description: as §2, §3, §4

| Molecule | Mean mKate+ (%), HSP90AA1 (HSP90AA1 locus) | Mean mKate+ (%), DYNLT1 (DYNLT1 locus) | further results |
| --- | --- | --- | --- |
| SSAP_198: SEQ ID NO: 367; Streptomyces sp. ms191 (protein, listed as Streptomyces sp.) VEHYKADLAQVMPSHVKPDTFIRLAVGVLRRDRNLAQAAQNNPAALMGALMDAAQLGLTPGTEQFYLVPRKKAGRLEVQGIRGYQGEIELIYRAGAVSSVIVEVVRQADTFRYSPGRDERPEHEIDWDAEDRGPLRLVYAYAVMKDGATSKVVVLNRAQVMKAKAMSQGSDSAYSPWQKHEEAMWMKTAAHRLTKWVPTSAEYMREQLRAAAEVAAEHRPTPVAAAPGMPSVPGEDEAIEAEFVDEDEVA |  |  | Cas9 with SSAP activity (gene editing with Cas9): −4.061; Cas9 with SSAP activity (normalized) (gene editing with Cas9): −0.571; Editing Efficiency (Normalized, Average, two targets) [1]: 5.524; Editing Efficiency (Absolute, Average, two targets) [1]: 13.65; dCas9 with SSAP activity (gene editing with dCas9): −2.578; dCas9 with SSAP activity (normalized) (gene editing with dCas9): −0.849; Activity across all experiments [2]: −3.320; Cell Viability (Average, two targets) (mammalian cells): 0.4444 |
| Homolog_T5: RecT, Providencia stuartii; SEQ ID NO: 123 (protein, listed as Providencia stuartii) MSNPPLAQADLQKTQGTEVKEKTKDQMLVELINKPSMKAQLAAALPRHMTPDRMIRIVTTEIRKTPALATCDMQSFVGAVVQCSQLGLEPGNALGHAYLLPFGNGKSKSGQSNVQLIIGYRGMIDLARRSGQIVSISARTVRQGDNFHFEYGLNENLTHVPGENEDSPITHVYAVARLKDGGVQFEVMTYNQIEKVRASSKAGQNGPWVSHWEEMAKKTVIRRLFKYLPVSIEMQKAVILDEKAEANIDQENATIFEGEYEEVGTDGK | 6.4300% | 10.8267% |  |
| Homolog_T3: RecT, Pantoea dispersa; SEQ ID NO: 119 (protein, listed as Pantoea dispersa) MSNQPPLATADLQKTQQSNQVAKTPEQTLVGFMNQPAMKSQLAAALPRHMTADRMIRIVTTEIRKTPALAQCDQSSFIGAVVQCSQLGLEPGSALGHAYLLPFGNGRSKSGQSNVQLIIGYRGMIDLARRSGQIVSLSARVVRADDEFSFEYGLDENLIHRPGDNESAPITHVYAVARLKDGGTQFEVMTAKQVEKVKAQSKASSNGPWVTHWEEMAKKTVIRRLFKYLPVSIEMQKAVVLDEKAESDVDQDNASVLSAEYSVLESGTGE | 7.1200% | 11.9000% |  |
| Homolog_E3: RecE, Pantoea dispersa; SEQ ID NO: 120 (protein, listed as Pantoea dispersa) MEPGIYYDISNEAYHSGPGISKSQLDDIARSPAIFQWRKDAPVDTEKTKALDLGTDFHCAVLEPERFADMYRVGPEVNRRTTAGKAEEKEFFEKCEKDGAVPITHDDARKVELMRGSVMAHPIAKQMIAAQGHAEASIYWHDESTGNLCRCRPDKFIPDWNWIVDVKTTADMKKFRREFYDLRYHVQDAFYTDGYAAQFGERPTFVFVVTSTTIDCGRYPTEVFFLDEETKAAGRSEYQSNLVTYSECLSRNEWPGIATLSLPHWAKELRNV | 6.7467% | 2.0533% |  |
| Homolog_E2: RecE, Pantoea brenneri; SEQ ID NO: 118 (protein, listed as Pantoea brenneri) MQPGIYYDISNEDYHRGAGISKSQLDDIAISPAIYQWRKHAPVDEEKTAALDLGTALHCLLLEPDEFSKRFQIGPEVNRRTTAGKEKEKEFIERCEAEGITPITHDDNRKLKLMRDSALAHPIARWMLEAQGNAEASIYWNDRDAGVLSRCRPDKIITEFNWCVDVKSTADIMKFQKDFYSYRYHVQDAFYSDGYESHFHETPTFAFLAVSTSIDCGRYPVQVFIMDQQAKDAGRAEYKRNIHTFAECLSRNEWPGIATLSLPFWAKELRNE | 6.4867% | 7.4533% |  |
| Homolog_T4: RecT, Type-F symbiont of Plautia stali; SEQ ID NO: 121 (protein, Type-F symbiont of Plautia stali) MSNQPPIASADLQKTQQSKQVANKTPEQTLVGFMNQPAMKSQLAAALPRHMTADRMIRIVTTEIRKTPALATCDQSSFIGAVVQCSQLGLEPGSALGHAYLLPFGNGRSKSGQSNVQLIIGYRGMIDLARRSGQIVSLSARVVRADDEFSFEYGLDENLIHRPGDNEDAPITHVYAVARLKDGGTQFEVMTAKQVEKVKAQSKASSNGPWVTHWEEMAKKTVIRRLFKYLPVSIEMQKAVVLDEKAESDVDQDNASVLSAEYSVLEGDGGE | 5.7567% | 10.4433% |  |
| Homolog_T1: RecT, Pantoea stewartii; SEQ ID NO: 115 (protein, listed as Pantoea stewartii) MSNQPPIASADLQKANTGKQVANKTPEQTLVGFMNQPAMKSQLAAALPRHMTADRMIRIVTTEIRKTPALATCDQSSFIGAVVQCSQLGLEPGSALGHAYLLPFGNGRSKSGQSNVQLIIGYRGMIDLARRSGQIVSLSARVVRADDEFSFEYGLDENLIHRPGENEDAPITHVYAVARLKDGGTQFEVMTVKQIEKVKAQSKASSNGPWVTHWEEMAKKTVIRRLFKYLPVSIEMQKAVILDEKAESDVDQDNASVLSAEYSVLDGSSEE | 8.0733% | 11.7333% |  |
| Homolog_E4: RecE, Type-F symbiont of Plautia stali; SEQ ID NO: 122 (protein, Type-F symbiont of Plautia stali) MQPGIYYDISNEDYHGGPGISKSQLDDIAISPAIYQWRKHAPVDEEKTAALDLGTALHCLLLEPDEFSKRFEIGPEVNRRTTAGKEKEKEFMERCEAEGVTPITHDDNRKLRLMRDSAMAHPIARWMLEAQGNAEASIYWNDRDTGVLSRCRPDKIITDFNWCVDVKSTADIIKFQKDFYSYRYHVQDAFYSDGYESHFDETPTFAFLAVSTSIDCGRYPVQVFIMDQQAKDAGRAEYKRNIHTFAECLSRNEWPGIATLSLPYWAKELRNE | 6.2567% | 5.7200% |  |
| Homolog_E1: RecE, Pantoea stewartii; SEQ ID NO: 116 (protein, listed as Pantoea stewartii) MQPGVYYDISNEEYHAGPGISKSQLDDIAVSPAIFQWRKSAPVDDEKTAALDLGTALHCLLLEPDEFSKRFMIGPEVNRRTNAGKQKEQDFLDMCEQQGITPITHDDNRKLRLMRDSAFAHPVARWMLETEGKAEASIYWNDRDTQILSRCRPDKLITEFSWCVDVKSTADIGKFQKDFYSYRYHVQDAFYSDGYEAQFCEVPTFAFLVVSSSIDCGRYPVQVFIMDQQAKDAGRAEYKRNLTTYAECQARNEWPGIATLSLPYWAKEIRNV | 7.6567% | 5.7333% |  |
| Homolog_T2: RecT, Pantoea brenneri; SEQ ID NO: 117 (protein, listed as Pantoea brenneri) MSNQPPIASADLQKTQQSKQVANKTPEQTLVGFMNQPAMKSQLAAALPRHMTADRMIRIVTTEIRKTPQLAQCDQSSFIGAVVQCSQLGLEPGSALGHAYLLPFGNGRSKSGQSNVQLIIGYRGMIDLARRSGQIVSLSARVVRADDEFSFEYGLDENLVHRPGENEDAPITHVYAVARLKDGGTQFEVMTVKQVEKVKAQSKASSNGPWVTHWEEMAKKTVIRRLFKYLPVSIEMQKAVVLDEKAESDVDQDNASVLSAEYSVLESGDEATN | 6.9233% | 12.0000% |  |
| SSAP_199: SEQ ID NO: 368; uncultured Mediterranean phage uvMED (protein, uncultured Mediterranean phage uvMED) TSSITPLVAMQGTLEKMADKFTEALPRQMDVNKFISVAKLTLNKNPRLLQADKTSLMQTFMKAAQDGLYLDGKEAAAVQYGQSVQYIPMVEGIIKVLHNSGLIKTISAEVVYENDFFDYELGTAPKITHKPLIVGDRGKPMCVYAVAITTNDGEYYEVMNMDQINQCRQVSKASSSPHSPWVKWFDQMAKKTVIHRIAKRLPKNDAINSVVTVDDEPNFQQAVNVTPSEPKDSLSRLRDSIGMEGKDVEQAANDLLEKYNKEAREE |  |  | Cas9 with SSAP activity (gene editing with Cas9): −7.274; Cas9 with SSAP activity (normalized) (gene editing with Cas9): −1.400; Editing Efficiency (Normalized, Average, two targets) [1]: 4.602; Editing Efficiency (Absolute, Average, two targets) [1]: 11.4025; dCas9 with SSAP activity (gene editing with dCas9): −2.480; dCas9 with SSAP activity (normalized) (gene editing with dCas9): −0.364; Activity across all experiments [2]: −4.877; Cell Viability (Average, two targets) (mammalian cells; live cell counts via flow cytometry, average of HSP90 and ACTB): 0.5186 |
